# Biological target: T1, HLA-A*0211 (purified recombinant HLA-A*0211 heavy chain with beta-2 microglobulin) (human)
# T1 construct: MHC class I molecule without peptide; folds with b2m in a peptide-dependent manner, and folded complex is measured by ELISA
# Assay: ELISA-based refolding assay: recombinant HLA-A*0211 heavy chain + b2m + graded doses of peptide
row,binding result,Binder
1,binds,KLDRERAKN (also called nonamer BIR-11) [BIR-11 (C-terminal nonamer of BIR-004: KLDRERAKN)]
2,binds,LKLDRERAKN [BIR-13 (C-terminal decamer of BIR-004: LKLDRERAKN)]
3,no binding,LDRERAKN [BIR-12 (C-terminal octamer of BIR-004: LDRERAKN)]
